# Experimental data from patent publication EP1780277A1.
# Molecular target: intact IFNAR1 from human cells (human) (UniProt P17181)
# Experiment: cell-based or functional assay
# Sequence of UniProt P17181 (P17181 28-557): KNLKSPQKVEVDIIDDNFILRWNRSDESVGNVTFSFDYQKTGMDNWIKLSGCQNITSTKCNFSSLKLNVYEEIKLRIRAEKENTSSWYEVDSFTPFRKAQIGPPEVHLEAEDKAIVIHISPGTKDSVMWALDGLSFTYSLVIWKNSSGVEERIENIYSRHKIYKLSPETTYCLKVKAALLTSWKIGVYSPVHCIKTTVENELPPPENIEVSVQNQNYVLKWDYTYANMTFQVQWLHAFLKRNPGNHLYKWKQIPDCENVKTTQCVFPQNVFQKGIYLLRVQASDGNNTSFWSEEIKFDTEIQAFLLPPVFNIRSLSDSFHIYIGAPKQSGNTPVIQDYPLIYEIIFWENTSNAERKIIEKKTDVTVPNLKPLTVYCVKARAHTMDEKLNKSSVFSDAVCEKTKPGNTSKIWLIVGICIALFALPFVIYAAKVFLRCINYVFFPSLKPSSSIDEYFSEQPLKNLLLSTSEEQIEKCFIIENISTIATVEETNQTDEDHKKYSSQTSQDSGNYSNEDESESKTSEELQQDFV
substance,measurement,value
IR1B4/PRMT protein of human U266S cells (from UniProt Q99873 11-371),"growth inhibitory effect of IFN-β on myeloma cells (Alamar Blue), with antisense-1 oligonucleotide against IR1B4",< 5 fold
